B1: AUP1 (parent)
chain: FCASTRLPPTPLLLFPEEEATNGR

Variants of: B1
Experiment: protein stability index of a GFP-peptide fusion (GPS, HEK-293T) (PSI 1-6); higher = more stable
Details: c terminus: a fixed tail appended
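Note: lentivirally expressed fusions sorted by FACS into six bins by GFP to DsRed ratio, PSI derived from sequencing read proportions per bin multiplied by bin number.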

Question: With FCASTRRPPTPLLLFPEEEATNGR as the variant, how does the protein stability index read?
Answer: 2.63

Question: With FCASTRWPPTPLLLFPEEEATNGR as the variant, how does the protein stability index read?
Answer: 1.51

Question: Which protein stability index does the source give for FCASTRQPPTPLLLFPEEEATNGR here?
Answer: 3.16

Question: For FCASTREPPTPLLLFPEEEATNGR, which protein stability index is on record?
Answer: 3.24

Question: For FCASTRVPPTPLLLFPEEEATNGR, which protein stability index is on record?
Answer: 3.31

Question: With FCASTRMPPTPLLLFPEEEATNGR as the variant, how does the protein stability index read?
Answer: 3

Question: With FCASTRKPPTPLLLFPEEEATNGR as the variant, how does the protein stability index read?
Answer: 2.89

Question: For FCASKRLPPTPLLLFPEEEATNGR, which protein stability index is on record?
Answer: 2.64

Question: With FCASGRLPPTPLLLFPEEEATNGR as the variant, how does the protein stability index read?
Answer: 2.7

Question: For FCASCRLPPTPLLLFPEEEATNGR, which protein stability index is on record?
Answer: 1.86

Question: For FCASDRLPPTPLLLFPEEEATNGR, which protein stability index is on record?
Answer: 3.44

Question: With FCASRRLPPTPLLLFPEEEATNGR as the variant, how does the protein stability index read?
Answer: 1.99

Question: With FCASSRLPPTPLLLFPEEEATNGR as the variant, how does the protein stability index read?
Answer: 2.64

Question: For FCASMRLPPTPLLLFPEEEATNGR, which protein stability index is on record?
Answer: 2.96

Question: Which protein stability index does the source give for FCASFRLPPTPLLLFPEEEATNGR here?
Answer: 1.81

Question: With FCASLRLPPTPLLLFPEEEATNGR as the variant, how does the protein stability index read?
Answer: 2.11

Question: With FCASYRLPPTPLLLFPEEEATNGR as the variant, how does the protein stability index read?
Answer: 2.27

Question: For FCASVRLPPTPLLLFPEEEATNGR, which protein stability index is on record?
Answer: 2.83

Question: For FCASQRLPPTPLLLFPEEEATNGR, which protein stability index is on record?
Answer: 2.86

Question: With FCASARLPPTPLLLFPEEEATNGR as the variant, how does the protein stability index read?
Answer: 3.19

Question: Which protein stability index does the source give for FCASWRLPPTPLLLFPEEEATNGR here?
Answer: 2.49

Question: Which protein stability index does the source give for FCASPRLPPTPLLLFPEEEATNGR here?
Answer: 3.16

Question: For FCASERLPPTPLLLFPEEEATNGR, which protein stability index is on record?
Answer: 3.77

Question: Which protein stability index does the source give for FCASHRLPPTPLLLFPEEEATNGR here?
Answer: 2.66

Question: With FCASIRLPPTPLLLFPEEEATNGR as the variant, how does the protein stability index read?
Answer: 2.22

Question: With FCASNRLPPTPLLLFPEEEATNGR as the variant, how does the protein stability index read?
Answer: 3.05

Question: For FCASTRLPPEPLLLFPEEEATNGR, which protein stability index is on record?
Answer: 3.23

Question: With FCASTRLPPHPLLLFPEEEATNGR as the variant, how does the protein stability index read?
Answer: 1.68

Question: With FCASTRLPPWPLLLFPEEEATNGR as the variant, how does the protein stability index read?
Answer: 2.33

Question: With FCASTRLPPQPLLLFPEEEATNGR as the variant, how does the protein stability index read?
Answer: 3.13

Question: With FCASTRLPPDPLLLFPEEEATNGR as the variant, how does the protein stability index read?
Answer: 2.84

Question: With FCASTRLPPIPLLLFPEEEATNGR as the variant, how does the protein stability index read?
Answer: 2.52

Question: For FCASTRLPPYPLLLFPEEEATNGR, which protein stability index is on record?
Answer: 1.99

Question: Which protein stability index does the source give for FCASTRLPPKPLLLFPEEEATNGR here?
Answer: 3.04

Question: With FCASTRLPPNPLLLFPEEEATNGR as the variant, how does the protein stability index read?
Answer: 2.92

Question: With FCASTRLPPRPLLLFPEEEATNGR as the variant, how does the protein stability index read?
Answer: 2.87

Question: Which protein stability index does the source give for FCASTRLPPLPLLLFPEEEATNGR here?
Answer: 2.23

Question: For FCASTRLPPSPLLLFPEEEATNGR, which protein stability index is on record?
Answer: 2.8

Question: For FCASTRLPPCPLLLFPEEEATNGR, which protein stability index is on record?
Answer: 2.33

Question: For FCASTRLPPGPLLLFPEEEATNGR, which protein stability index is on record?
Answer: 2.53

Question: For FCASTRLPPFPLLLFPEEEATNGR, which protein stability index is on record?
Answer: 1.32

Question: For FCASTRLPPVPLLLFPEEEATNGR, which protein stability index is on record?
Answer: 2.39

Question: For FCASTRLPPAPLLLFPEEEATNGR, which protein stability index is on record?
Answer: 3.13

Question: For FCASTRLPPMPLLLFPEEEATNGR, which protein stability index is on record?
Answer: 2.28

Question: With FCASTRLPPTGLLLFPEEEATNGR as the variant, how does the protein stability index read?
Answer: 2.54

Question: For FCASTRLPPTELLLFPEEEATNGR, which protein stability index is on record?
Answer: 3.4

Question: For FCASTRLPPTKLLLFPEEEATNGR, which protein stability index is on record?
Answer: 2.39

Question: With FCASTRLPPTHLLLFPEEEATNGR as the variant, how does the protein stability index read?
Answer: 2.33

Question: For FCASTRLPPTALLLFPEEEATNGR, which protein stability index is on record?
Answer: 2.39

Question: With FCASTRLPPTQLLLFPEEEATNGR as the variant, how does the protein stability index read?
Answer: 2.58

Question: With FCASTRLPPTLLLLFPEEEATNGR as the variant, how does the protein stability index read?
Answer: 1.63

Question: With FCASTRLPPTFLLLFPEEEATNGR as the variant, how does the protein stability index read?
Answer: 2.08

Question: For FCASTRLPPTCLLLFPEEEATNGR, which protein stability index is on record?
Answer: 2.57

Question: For FCASTRLPPTDLLLFPEEEATNGR, which protein stability index is on record?
Answer: 2.99

Question: With FCASTRLPPTRLLLFPEEEATNGR as the variant, how does the protein stability index read?
Answer: 2.06

Question: With FCASTRLPPTILLLFPEEEATNGR as the variant, how does the protein stability index read?
Answer: 2.04

Question: For FCASTRLPPTNLLLFPEEEATNGR, which protein stability index is on record?
Answer: 2.83

Question: Which protein stability index does the source give for FCASTRLPPTMLLLFPEEEATNGR here?
Answer: 2.6

Question: For GCASTRLPPTPLLLFPEEEATNGR, which protein stability index is on record?
Answer: 4.27

Question: With LCASTRLPPTPLLLFPEEEATNGR as the variant, how does the protein stability index read?
Answer: 3.9

Question: For PCASTRLPPTPLLLFPEEEATNGR, which protein stability index is on record?
Answer: 4.53

Question: For NCASTRLPPTPLLLFPEEEATNGR, which protein stability index is on record?
Answer: 4.16

Question: Which protein stability index does the source give for KCASTRLPPTPLLLFPEEEATNGR here?
Answer: 4.17

Question: Which protein stability index does the source give for ACASTRLPPTPLLLFPEEEATNGR here?
Answer: 4.17

Question: For QCASTRLPPTPLLLFPEEEATNGR, which protein stability index is on record?
Answer: 4.54

Question: Which protein stability index does the source give for VCASTRLPPTPLLLFPEEEATNGR here?
Answer: 4.27

Question: Which protein stability index does the source give for ECASTRLPPTPLLLFPEEEATNGR here?
Answer: 4.65

Question: Which protein stability index does the source give for YCASTRLPPTPLLLFPEEEATNGR here?
Answer: 3

Question: With MCASTRLPPTPLLLFPEEEATNGR as the variant, how does the protein stability index read?
Answer: 4.27

Question: With CCASTRLPPTPLLLFPEEEATNGR as the variant, how does the protein stability index read?
Answer: 2.6

Question: Which protein stability index does the source give for HCASTRLPPTPLLLFPEEEATNGR here?
Answer: 4.28

Question: For DCASTRLPPTPLLLFPEEEATNGR, which protein stability index is on record?
Answer: 4.35

Question: For TCASTRLPPTPLLLFPEEEATNGR, which protein stability index is on record?
Answer: 4.6

Question: For RCASTRLPPTPLLLFPEEEATNGR, which protein stability index is on record?
Answer: 4.24

Question: For WCASTRLPPTPLLLFPEEEATNGR, which protein stability index is on record?
Answer: 3.74

Question: Which protein stability index does the source give for SCASTRLPPTPLLLFPEEEATNGR here?
Answer: 4.3

Question: For ICASTRLPPTPLLLFPEEEATNGR, which protein stability index is on record?
Answer: 4.27

Question: With FCASTRLWPTPLLLFPEEEATNGR as the variant, how does the protein stability index read?
Answer: 2.27

Question: With FCASTRLQPTPLLLFPEEEATNGR as the variant, how does the protein stability index read?
Answer: 3.19

Question: For FCASTRLRPTPLLLFPEEEATNGR, which protein stability index is on record?
Answer: 2.67

Question: Which protein stability index does the source give for FCASTRLNPTPLLLFPEEEATNGR here?
Answer: 2.66

Question: For FCASTRLSPTPLLLFPEEEATNGR, which protein stability index is on record?
Answer: 2.84

Question: Which protein stability index does the source give for FCASTRLEPTPLLLFPEEEATNGR here?
Answer: 2.91

Question: Which protein stability index does the source give for FCASTRLKPTPLLLFPEEEATNGR here?
Answer: 2.09

Question: Which protein stability index does the source give for FCASTRLAPTPLLLFPEEEATNGR here?
Answer: 2.48

Question: For FCASTRLVPTPLLLFPEEEATNGR, which protein stability index is on record?
Answer: 2.41

Question: Which protein stability index does the source give for FCASTRLHPTPLLLFPEEEATNGR here?
Answer: 2.33

Question: For FCASTRLLPTPLLLFPEEEATNGR, which protein stability index is on record?
Answer: 1.96

Question: Which protein stability index does the source give for FCASTRLCPTPLLLFPEEEATNGR here?
Answer: 2.08

Question: Which protein stability index does the source give for FCASTRLMPTPLLLFPEEEATNGR here?
Answer: 2.57

Question: Which protein stability index does the source give for FCASTRLYPTPLLLFPEEEATNGR here?
Answer: 1.9

Question: With FCASTRLTPTPLLLFPEEEATNGR as the variant, how does the protein stability index read?
Answer: 2.94

Question: Which protein stability index does the source give for FCASTRLFPTPLLLFPEEEATNGR here?
Answer: 2.43

Question: Which protein stability index does the source give for FCASTRLDPTPLLLFPEEEATNGR here?
Answer: 2.92
